In ChEMBL document CHEMBL1154924, “Carbonic anhydrase activators: Activation of the beta-carbonic anhydrase from the pathogenic yeast Candida glabrata with amines and amino acids” (Bioorg Med Chem Lett, 2010):

How the values were obtained:
[1] = substrate: NCCc1c[nH]cn1; conditions: Nakaseomyces glabratus
Description: Activity at Candida glabrata recombinant carbonic anhydrase

[2] = substrate: NCCc1c[nH]cn1; conditions: Methanothermobacter thermautotrophicus
Description: Activity at archaea Methanobacterium thermoautotrophicum recombinant carbonic anhydrase

[3] = substrate: NCCc1c[nH]cn1; conditions: Saccharomyces cerevisiae
Description: Activity at Saccharomyces cerevisiae recombinant Nce103p

B1: Carbonic anhydrase (Candida glabrata CBS 138), Q6FTL6 (protein)
chain: MTKDTIFTLTGKCALDNILDANRQWAQAMHRSQPQLFPTNGQGQDPHTLFIGCSDSRYNEDCLGVLPGEIFTLKTVANICHTDDHSLLATLEFAILNLKVNRIILCGHTDCGGIKTCLLGRESIKESCPHLYEHLDDIEDLVESHESELNQLDNICSKSKLMSHRNVERQLQRLLQIPVVQDALRNSNQDHEFNIFGLVYNVDSGLVDVVREVYGNQQK
- Km [1]: 7.9 mM

B2: Carbonic anhydrase (Methanobacterium thermoautotrophicum), Q50565 (protein)
chain: MRFVSMIIKDILRENQDFRFRDLSDLKHSPKLCIITCMDSRLIDLLERALGIGRGDAKVIKNAGNIVDDGVIRSAAVAIYALGVNEIIIVGHTDCGMARLDEDLIVSRMRELGVEEEVIENFSIDVLNPVGDEEENVIEGVKRLKSSPLIPESIGVHGLIIDINTGRLKPLYLDED
- Km [2]: 1.7 mM

B3: Carbonic anhydrase (Saccharomyces cerevisiae S288c), P53615 (protein)
chain: MSATESSSIFTLSHNSNLQDILAANAKWASQMNNIQPTLFPDHNAKGQSPHTLFIGCSDSRYNENCLGVLPGEVFTWKNVANICHSEDLTLKATLEFAIICLKVNKVIICGHTDCGGIKTCLTNQREALPKVNCSHLYKYLDDIDTMYHEESQNLIHLKTQREKSHYLSHCNVKRQFNRIIENPTVQTAVQNGELQVYGLLYNVEDGLLQTVSTYTKVTPK
- Km [3]: 9.5 mM
